Source: patent US20120058120A1, “Targets for Growth Factor Signalling and Methods of Therapy” (priority 2009, published 2012)

Tests used:
FXIII = biological target: T1, FXIII (Homo sapiens, UniProt P00488); assay: IGF-I incubated with FXIII and PEG functionalized with Q- or K-donor TG substrate peptide, IGF-I Western blot; assay type: biochemical; settings: after 1 h; Q-donor vs K-donor PEG
T1 sequence (P00488 1-732): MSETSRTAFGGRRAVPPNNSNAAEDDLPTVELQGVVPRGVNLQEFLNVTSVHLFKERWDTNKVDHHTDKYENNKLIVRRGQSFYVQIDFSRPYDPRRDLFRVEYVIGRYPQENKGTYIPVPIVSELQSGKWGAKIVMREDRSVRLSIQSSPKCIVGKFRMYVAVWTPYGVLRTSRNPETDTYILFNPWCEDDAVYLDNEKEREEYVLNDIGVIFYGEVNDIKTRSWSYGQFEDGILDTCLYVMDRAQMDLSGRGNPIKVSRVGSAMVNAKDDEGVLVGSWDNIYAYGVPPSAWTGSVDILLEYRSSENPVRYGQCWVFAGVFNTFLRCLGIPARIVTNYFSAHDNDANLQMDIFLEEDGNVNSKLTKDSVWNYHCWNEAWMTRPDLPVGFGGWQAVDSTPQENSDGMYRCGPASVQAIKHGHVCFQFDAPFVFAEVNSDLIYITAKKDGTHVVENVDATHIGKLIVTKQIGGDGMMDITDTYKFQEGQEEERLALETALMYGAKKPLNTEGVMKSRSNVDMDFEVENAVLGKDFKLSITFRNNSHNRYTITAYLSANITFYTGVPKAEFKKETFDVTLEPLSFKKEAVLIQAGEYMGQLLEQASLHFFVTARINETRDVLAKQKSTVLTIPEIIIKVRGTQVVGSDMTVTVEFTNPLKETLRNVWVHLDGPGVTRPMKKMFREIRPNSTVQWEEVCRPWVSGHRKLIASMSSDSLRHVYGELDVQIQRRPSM
Description: FIG. 1 (a) IGF-I Western blot after reaction for 60 minutes with FXIII and PEG derivatized with a glutamine (left lane) or lysine FXIII substrate (right lane). […] (b) 3D structure of IGF-I, with the putative FXIII site at the D domain shown relative to residues identified as important for receptor binding.
In the present experiments, IGF-I was incubated with FXIII and PEG functionalized with either a glutamine (Q)- or lysine (K)-donor TG substrate peptide.

TG2 [1] = biological target: T2, TG2 (Homo sapiens, UniProt P21980); assay: Reaction of IGF-I with TG2, with or without the Gln-donor substrate glucagon; assay type: biochemical
T2 sequence (P21980 1-687): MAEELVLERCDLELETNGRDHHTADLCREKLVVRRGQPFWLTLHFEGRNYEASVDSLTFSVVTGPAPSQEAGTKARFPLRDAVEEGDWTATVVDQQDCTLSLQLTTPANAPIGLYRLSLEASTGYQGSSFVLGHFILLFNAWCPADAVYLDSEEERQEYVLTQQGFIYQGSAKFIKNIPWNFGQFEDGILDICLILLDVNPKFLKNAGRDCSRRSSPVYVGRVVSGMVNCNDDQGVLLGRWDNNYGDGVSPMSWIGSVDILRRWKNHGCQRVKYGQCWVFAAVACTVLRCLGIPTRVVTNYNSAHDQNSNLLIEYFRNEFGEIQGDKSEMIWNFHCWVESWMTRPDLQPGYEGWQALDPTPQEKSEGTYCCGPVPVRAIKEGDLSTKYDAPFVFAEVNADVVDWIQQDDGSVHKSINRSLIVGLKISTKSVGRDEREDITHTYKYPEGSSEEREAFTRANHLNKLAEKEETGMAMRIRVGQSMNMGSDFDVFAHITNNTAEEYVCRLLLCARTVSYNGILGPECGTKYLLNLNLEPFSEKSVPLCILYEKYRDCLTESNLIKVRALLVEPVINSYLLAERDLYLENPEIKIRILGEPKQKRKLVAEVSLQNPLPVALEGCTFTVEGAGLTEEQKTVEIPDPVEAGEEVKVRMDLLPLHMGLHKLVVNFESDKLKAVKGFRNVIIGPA
Source text: FIG. 4 Reaction of IGF-I with glucagon catalysed by TG2. Lane 1: IGF-I control; 2: IGF-I+TG2; 3: TG2 control; 4: Gn control; 5: IGF-I+Gn; 6: TG2+Gn; 7: TG2+Gn+IGF-I. (Gn=glucagon)
In order to confirm this finding, we repeated this experiment using TG2 rather than FXIII, and the known TG2 Gln-donor substrate glucagon (Gn) as a probe (FIG. 4). […] The large band >75 kDa in lane 2 is apparently due to the formation of covalent complexes between IGF-I and TG2 itself; polymerization of IGF-I is also evident. Reaction of IGF-I with Gn (lane 7) also produced polymeric species. A band of MW consistent with (IGF-I)1Gn1 is indicated by an arrow.

TG2 [2] = biological target: T2, TG2; assay: TG2-catalysed crosslinking of IGF-I to recombinant extracellular domain of IGF1R, IGF-I Western blot; assay type: biochemical; settings: TG2 0.70 μM, IGF-I 25 μg/mL, IGF1R 25 μg/mL, 1 hour, 1 mM CaCl2, pH 7.5
Description: TG2 (0.70 μM) was reacted with IGF-I (25 μg/mL) and/or recombinant extracellular domain of IGF1R (25 μg/mL; commercially available from R&D Systems) for 1 hour in the presence of 1 mM CaCl2, pH 7.5. At this point, the reaction was stopped by the addition of SDS-PAGE loading buffer. Samples were run through a 4%-12% SDS-PAGE gel, transferred to a PVDF membrane and probed for IGF-I using a goat anti-human IGF-I primary (1:5000 dilution) and HRP-conjugated rabbit anti-goat secondary (1:10,000), and visualised using chemiluminescence.
For it to be able to do this, both IGF-I and the IGF1R would have to be transglutaminase substrates. Because TG2 catalyses the formation of an isopeptide bond which is essentially as stable as a peptide backbone bond, the complex formed will not be broken apart under reducing SDS-PAGE conditions (whereas disulfide and non-covalent interactions will be broken).
So, in this assay we reacted IGF-I and the soluble recombinant extracellular portion of the receptor with TG2, and probed for where IGF-I ended up using a standard Western blot approach. The “smoking gun” for a reaction would be staining for IGF-I appearing at a molecular weight corresponding to […]. […]

[3] = biological target: insulin-like growth factor I (IGF-I), P05019
Chain of insulin-like growth factor I (IGF-I), P05019 (P05019 whole entry, looked up): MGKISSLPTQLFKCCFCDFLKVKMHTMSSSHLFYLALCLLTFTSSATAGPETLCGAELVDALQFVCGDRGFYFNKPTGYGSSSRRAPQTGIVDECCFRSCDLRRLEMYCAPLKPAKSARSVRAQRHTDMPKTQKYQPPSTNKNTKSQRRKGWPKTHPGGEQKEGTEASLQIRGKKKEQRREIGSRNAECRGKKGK

IGF-I: insulin-like growth factor I, tested as transglutaminase substrate
incorporation of IGF-I into TG substrate-functionalized PEG (FXIII): quantitatively incorporated into the Q-donor, but not the K-donor PEG
products of reaction of IGF-I alone with TG2 (TG2 [1]; lane 2, IGF-I+TG2): produced a series of bands corresponding to IGF-I oligomers
products of reaction of IGF-I with glucagon catalysed by TG2 (TG2 [1]; lane 7, TG2+Gn+IGF-I): produced a wide range of molecular weight species
crosslinking of IGF-I to IGF1R by TG2 (TG2 [2]): TG2 recognises sites on both the IGF1R and IGF-I, and is able to bind the two together

B1: factor XIII (FXIII) (protein)
chain: SETSRTAFGGRRAVPPNNSNAAEDDLPTVELQGVVPRGVNLQEFLNVTSVHLFKERWDTNKVDHHTDKYENNKLIVRRGQSFYVQIDFSRPYDPRRDLFRVEYVIGRYPQENKGTYIPVPIVSELQSGKWGAKIVMREDRSVRLSIQSSPKCIVGKFRMYVAVWTPYGVLRTSRNPETDTYILFNPWCEDDAVYLDNEKEREEYVLNDIGVIFYGEVNDIKTRSWSYGQFEDGILDTCLYVMDRAQMDLSGRGNPIKVSRVGSAMVNAKDDEGVLVGSWDNIYAYGVPPSAWTGSVDILLEYRSSENPVRYGQCWVFAGVFNTFLRCLGIPARIVTNYFSAHDNDANLQMDIFLEEDGNVNSKLTKDSVWNYHCWNEAWMTRPDLPVGFGGWQAVDSTPQENSDGMYRCGPASVQAIKHGHVCFQFDAPFVFAEVNSDLIYITAKKDGTHVVENVDATHIGKLIVTKQIGGDGMMDITDTYKFQEGQEEERLALETALMYGAKKPLNTEGVMKSRSNVDMDFEVENAVLGKDFKLSITFRNNSHNRYTITAYLSANITFYTGVPKAEFKKETFDVTLEPLSFKKEAVLIQAGEYMGQLLEQASLHFFVTARINETRDVLAKQKSTVLTIPEIIIKVRGTQVVGSDMTVTVEFTNPLKETLRNVWVHLDGPGVTRPMKKMFREIRPNSTVQWEEVCRPWVSGHRKLIASMSSDSLRHVYGELDVQIQRRPSM
Western blot for IGF-I after 1 h reaction with FXIII and PEG carrying a glutamine- or lysine-donor TG substrate peptide [3]: after 1 h IGF-I was quantitatively incorporated into the Q-donor, but not the K-donor PEG
